Results taken from patent publication US20080292641A1 (MORPHOTEK, published 2008).
Several values for one entry are separate records, joined by “and”; a condition that tells them apart may be missing. Equal entries are not always repeated. Where no end group is shown, it is not given here. cellulose membrane = derivatized cellulose membrane (SPOTs) solid support, attached to the peptide C-terminus

Tests used:
[1] = biological target: T1, human granulocyte-macrophage colony stimulating factor (GM-CSF) (human, UniProt P04141 18-144); experiment: BIACORE
T1 construct: The assays used recombinant human GM-CSF (in-house, PeproTech, or PE-labeled from R&D Systems); also called hGM-CSF; human GM-CSF
T1 sequence (P04141 18-144): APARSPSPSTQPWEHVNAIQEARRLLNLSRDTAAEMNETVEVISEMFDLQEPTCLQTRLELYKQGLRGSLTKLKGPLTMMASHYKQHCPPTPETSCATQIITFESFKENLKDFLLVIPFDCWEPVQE

hIL-13 = hIL-13 (human, UniProt P35225 35-146, limits assumed); experiment: antigen panel ELISA, antigen coated on the plate, O.D. 450
hIL-13, sequence (P35225 35-146 limits assumed): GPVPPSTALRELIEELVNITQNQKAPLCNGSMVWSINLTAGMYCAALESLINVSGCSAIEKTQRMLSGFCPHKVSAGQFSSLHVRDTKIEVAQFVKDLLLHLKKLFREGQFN

h IL-4 = biological target: T2, h IL-4 (human, UniProt P05112 25-153); experiment: as above
T2 sequence (looked up): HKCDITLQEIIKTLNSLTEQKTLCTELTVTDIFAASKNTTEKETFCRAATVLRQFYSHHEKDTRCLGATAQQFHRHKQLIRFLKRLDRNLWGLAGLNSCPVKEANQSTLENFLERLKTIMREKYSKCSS

murine GM-CSF = biological target: T3, murine GM-CSF (murine, UniProt P01587 18-141); experiment: as above
T3 construct: also called mGM-CSF
T3 sequence (looked up): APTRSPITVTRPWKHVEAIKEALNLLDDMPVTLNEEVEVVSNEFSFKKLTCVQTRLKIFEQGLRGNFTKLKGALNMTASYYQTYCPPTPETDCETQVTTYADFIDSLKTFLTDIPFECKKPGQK

BSA = biological target: T4, BSA (bovine, UniProt P02769 25-607); experiment: as above
T4 construct: also called bovine serum albumin
T4 sequence (P02769 25-607 limits assumed): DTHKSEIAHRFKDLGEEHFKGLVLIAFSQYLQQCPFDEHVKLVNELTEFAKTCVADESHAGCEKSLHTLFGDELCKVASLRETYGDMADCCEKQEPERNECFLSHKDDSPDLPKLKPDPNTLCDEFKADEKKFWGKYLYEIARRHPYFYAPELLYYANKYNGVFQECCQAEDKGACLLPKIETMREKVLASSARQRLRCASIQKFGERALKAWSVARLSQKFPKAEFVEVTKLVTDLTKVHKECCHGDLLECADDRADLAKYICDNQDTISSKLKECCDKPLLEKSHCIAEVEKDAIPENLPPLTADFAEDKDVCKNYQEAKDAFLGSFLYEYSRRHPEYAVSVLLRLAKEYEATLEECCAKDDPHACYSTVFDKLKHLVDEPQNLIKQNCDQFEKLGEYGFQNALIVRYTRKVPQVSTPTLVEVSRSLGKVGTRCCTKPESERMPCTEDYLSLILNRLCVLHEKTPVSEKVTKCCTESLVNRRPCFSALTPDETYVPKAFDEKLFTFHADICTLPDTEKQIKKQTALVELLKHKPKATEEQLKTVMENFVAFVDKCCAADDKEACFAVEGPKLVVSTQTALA

h IL-3 = biological target: T5, h IL-3 (human, UniProt P08700 20-152); experiment: as above
T5 sequence (looked up): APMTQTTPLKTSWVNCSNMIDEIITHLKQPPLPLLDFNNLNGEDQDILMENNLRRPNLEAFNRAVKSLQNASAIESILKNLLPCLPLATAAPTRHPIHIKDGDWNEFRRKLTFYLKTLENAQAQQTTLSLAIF

IL-6 = IL-6 (Homo sapiens (Human), UniProt P05231 30-212); experiment: as above
h IL-2 = h IL-2 (human, UniProt P60568 21-153); experiment: as above
h IL-2, sequence (P60568 21-153 limits assumed): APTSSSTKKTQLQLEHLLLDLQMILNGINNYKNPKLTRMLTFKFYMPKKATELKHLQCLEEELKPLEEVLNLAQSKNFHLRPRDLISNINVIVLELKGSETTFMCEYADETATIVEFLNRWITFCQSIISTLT

h IL-5 = biological target: T6, h IL-5 (human, UniProt P05113 20-134); experiment: as above
T6 sequence (looked up): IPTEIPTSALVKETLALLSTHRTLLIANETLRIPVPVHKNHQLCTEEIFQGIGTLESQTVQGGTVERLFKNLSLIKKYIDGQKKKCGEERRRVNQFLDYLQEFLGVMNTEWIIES

hIL-1a = biological target: T7, hIL-1a (human, UniProt P01583 113-271); experiment: as above
T7 sequence (looked up): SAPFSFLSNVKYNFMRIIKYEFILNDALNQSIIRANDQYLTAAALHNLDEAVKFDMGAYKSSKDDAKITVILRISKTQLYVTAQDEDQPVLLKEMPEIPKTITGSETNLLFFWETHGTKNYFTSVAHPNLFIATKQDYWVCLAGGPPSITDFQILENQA

SEB [2] = biological target: T8, SEB (UniProt P01552 28-266); experiment: antigen-specific ELISA (subsequent study, data not shown)
T8 sequence: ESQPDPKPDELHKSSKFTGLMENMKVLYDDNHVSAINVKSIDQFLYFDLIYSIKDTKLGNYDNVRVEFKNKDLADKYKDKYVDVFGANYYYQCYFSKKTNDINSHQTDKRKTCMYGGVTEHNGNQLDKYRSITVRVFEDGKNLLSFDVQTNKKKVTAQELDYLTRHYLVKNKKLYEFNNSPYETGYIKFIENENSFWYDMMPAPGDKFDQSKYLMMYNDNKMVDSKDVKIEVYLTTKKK

human mesothelin [3] = biological target: T9, human mesothelin (human, UniProt Q13421 296-598, limits assumed); experiment: as above
T9 construct: also called human Mesothilin
T9 sequence (Q13421 other isoform, or with tags, fused parts or gaps limits assumed): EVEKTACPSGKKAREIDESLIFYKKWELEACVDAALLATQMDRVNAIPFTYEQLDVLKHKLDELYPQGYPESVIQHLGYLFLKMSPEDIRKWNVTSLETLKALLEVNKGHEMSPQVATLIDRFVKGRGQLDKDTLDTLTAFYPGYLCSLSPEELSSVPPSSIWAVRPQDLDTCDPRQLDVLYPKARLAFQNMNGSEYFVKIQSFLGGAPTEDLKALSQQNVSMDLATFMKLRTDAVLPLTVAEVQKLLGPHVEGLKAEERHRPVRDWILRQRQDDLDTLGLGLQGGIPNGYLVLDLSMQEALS

HEL [4] = biological target: T10, HEL (UniProt P00698 19-147); experiment: as above
T10 sequence (P00698 19-147): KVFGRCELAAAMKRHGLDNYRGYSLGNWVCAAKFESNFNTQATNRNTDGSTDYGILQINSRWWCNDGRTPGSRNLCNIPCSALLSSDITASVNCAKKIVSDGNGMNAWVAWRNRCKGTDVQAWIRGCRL

[5] = biological target: T1, human granulocyte-macrophage colony …; experiment: apparent affinity, method not given
[6] = biological target: T11, human GM-CSF overlapping 12-mer peptide, SEQ ID NO:36 (human); experiment: SPOT peptide membrane probed with G9, HRP goat anti-human IgG, ECL
T11 construct: also called peptide #13
T11 peptide: TRLELYKQGLRG-{cellulose membrane}

[7] = biological target: T12, human GM-CSF overlapping 12-mer peptide, SEQ ID NO:37 (human); experiment: as above
T12 construct: also called peptide #14
T12 peptide: YKQGLRGSLTKL-{cellulose membrane}

[8] = biological target: T13, human GM-CSF overlapping 12-mer peptide, SEQ ID NO:38 (human); experiment: as above
T13 construct: also called peptide #15
T13 peptide: RGSLTKLKGPLT-{cellulose membrane}

[9] = biological target: T14, human GM-CSF overlapping 12-mer peptide, SEQ ID NO:35 (human); experiment: as above
T14 construct: also called peptide #6
T14 peptide: ARRLLNLSRDTA-{cellulose membrane}

SEB [10] = biological target: T8, SEB; experiment: antigen specific ELISA (subsequent study, data not shown)
human mesothelin [11] = biological target: T9, human mesothelin; experiment: as above
HEL [12] = biological target: T10, HEL; experiment: as above
[13] = biological target: T15, human GM-CSF overlapping 12-mer peptide #23; experiment: SPOTs peptide membrane, 1 mg/ml purified 10G9
T15 construct: Only 'possibly' recognized by G9
T15 peptide: KENLKDFLLVIP-{cellulose membrane}

B1: anti-GM-CSF human IgG1 monoclonal antibody E10 (antibody, V domains shown)
VH: QVQLEESGGGVVQPGRSLRLSCAASGFTFTNYGMHWVRQAPGKGLEWLALISYDGNRQYYADSVKGRFTVSRDNPNNTLHLEMKSLRAEDSAIYYCARGAGVLLWFGDLSWFDPWGQGTLVTVSS
VL: DIQMTQSPSNLSASVGDRVTITCRASQNINTWLAWYQHKPGKPPKLRIYQASTLESGVPSRFSGSGSGTIFTLTISSLQPDDFGTYYCQQNNSYPYTFGQGTKLEINR
notes: Fully human IgG1 kappa made by a hybridoma from B cells of a PAP patient; also called 4E10; E10.20
Kd [1]: 870 pM and ~870 pM
koff [1]: 2.16e-05 s⁻¹
kon [1]: 24700 M⁻¹ s⁻¹
binding result (hIL-13): no binding
binding result (h IL-4): no binding
binding result (murine GM-CSF): no binding
binding result (BSA): no binding
binding result (h IL-3): no binding
binding result (IL-6): no binding
binding result (h IL-2): no binding
binding result (h IL-5): no binding
binding result (hIL-1a): no binding
binding result (SEB [2]): no binding
binding result (human mesothelin [3]): no binding
binding result (HEL [4]): no binding

B2: anti-GM-CSF human IgG1 monoclonal antibody G9 (antibody, V domains shown)
VH: EVQLVESGGGLVQPGGSLRLSCAASGFTFSRHWMHWLRQVPGKGPVWVSRINGAGTSITYADSVRGRFTISRDNANNTLFLQMNSLRADDTALYFCARANSVWFRGLFDYWGQGTPVTVSS
VL: EIVLTQSPVTLSVSPGERVTLSCRASQSVSTNLAWYQQKLGQGPRLLIYGASTRATDIPARFSGSGSETEFTLTISSLQSEDFAVYYCQQYDKWPDTFGQGTKLEIKR
notes: Fully human IgG1 kappa made by a hybridoma from B cells of a PAP patient; also called 10G9; 10G9.1
Kd [5]: 14 pM
Kd [1]: 0.0109 nM and 0.011 nM to 0.017 nM (2×)
koff [1]: 9.27e-05 s⁻¹
kon [1]: 8.47e+06 M⁻¹ s⁻¹
binding result [6]: binds
binding result [7]: binds
binding result [8]: binds
binding result [9]: binds
binding result (SEB [10]): no binding
binding result (human mesothelin [11]): no binding
binding result (HEL [12]): no binding
binding result [13]: binds
